From patent US20130142788A1 (published 2013)
Positions count from the first letter of the chain named. Each block holds one binder with its values, some of them ahead of it.

Tests used:
[1] = target: T1, recombinant mature dimeric myostatin (human and mouse (mature sequences 100% …, UniProt O08689 268-376)); experiment: myostatin capture ELISA: polyclonal anti-myostatin coated, myostatin 1 ug/ml captured, antibody titrated, anti-human kappa-HRP, OPD, A490
T1 construct: also called GDF-8; mature myostatin
T1 sequence: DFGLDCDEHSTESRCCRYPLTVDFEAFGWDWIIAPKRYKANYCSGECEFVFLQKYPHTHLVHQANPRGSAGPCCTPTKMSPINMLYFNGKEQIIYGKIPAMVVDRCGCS
Description: The eleven affinity purified CDRH3 variants were also analyzed for binding activity in the myostatin capture ELISA.
(§1) A 96-well ELISA plate was coated at 4° C. overnight with 2.5 μg/ml polyclonal Antibody to Myostatin (R&D Systems AF788). This plate was then washed 3-times in wash buffer (PBS, 0.1% Tween-20) and blocked for 1 hour at room temperature with block solution (PBS, 0.1% Tween-20+1% bovine serum albumin [BSA]). Then, myostatin was added at 1 μg/ml in block buffer during 1 hour followed by 3-times in wash buffer. Antibodies were then titrated out to a suitable concentration range (approximately 10 to 0.01 μg/ml), added to the plate and incubated for 1 hour at room temperature. The plate was then washed 3-times in wash buffer. An anti-human kappa light chain HRP-conjugated antibody (Sigma A7164, used according to the manufacturer's instructions) was used to detect binding of humanized or chimeric antibodies, such as 10B3 chimera (HcLc) or H0L0. The plate was then washed 3-times in wash buffer and developed with an OPD substrate (according to the manufacturer's instructions) and read at 490 nm on a plate reader.

[2] = target: T1, recombinant mature dimeric myostatin; experiment: ActRIIb neutralisation ELISA: inhibition of 2 nM biotinylated myostatin binding to coated ActRIIb
Description: Recombinant soluble ActRIIb (R&D Systems 339-RBB) was coated in wells of an ELISA plate at 1 μg/ml in carbonate buffer overnight at 4° C. Plates were blocked with PBS containing 0.1% tween 20 and 0.1% BSA and washed following standard ELISA protocols. In parallel, 2 nM biotinylated myostatin (in-house reagent, described above) was pre-incubated with a dilution series of the antibodies of Tables 21 and 22 for 30 minutes at 37° C. The biotinylated myostatin:antibody reactions were then added (50 μl/well) to the ActRIIb coated plate for 1 hour at 37° C. Standard wash procedures were followed prior to addition of 50 μl per well of a 1:200 diluted streptavidin-HRP conjugate (R&D Systems. #890803) followed by a further 37° C. incubation for 1 hour. Plates were again washed and assayed at absorbance 490 nm following substrate (R&D Systems, #DY999) and acid stop solution treatment.

[3] = target: T1, recombinant mature dimeric myostatin; experiment: cell-based or functional assay
[4] = target: T1, recombinant mature dimeric myostatin; experiment: myostatin competition ELISA, polyclonal Ab capture of myostatin, competitor 10B3
Description: as §1
The protocol set out in 5.7 was used with the addition of 10B3 (final concentration of […]) to each well and mixed with the antibodies titrated out to a suitable concentration range (approximately 10 to 0.01 μg/ml). An anti-mouse HRP-conjugated antibody (DAKO P0260, used according to the manufacturer's instructions) was used to detect binding of the 10B3 antibody.

[5] = target: T1, recombinant mature dimeric myostatin; experiment: cell-based or functional assay; remark: listed apart in the source
[6] = target: T1, recombinant mature dimeric myostatin; experiment: myostatin competition ELISA, direct capture of myostatin, competitor 10B3
Description: as §1
The protocol set out in 5.7 was used but the plates were initially coated at 4° C. overnight with 0.2 μg/ml of myostatin (recombinant in-house, see 1.1 above). 10B3 (final concentration of 0.3 μg/ml) was added into each well and mixed with antibodies titrated out to a suitable concentration range (approximately 10 to 0.01 μg/ml). An anti-mouse HRP-conjugated antibody (DAKO P0260, used according to the manufacturer's instructions) was used to detect binding of the 10B3 antibody.

[7] = target: T1, recombinant mature dimeric myostatin; experiment: myostatin competition ELISA, biotinylated myostatin on streptavidin, competitor 10B3
Description: The protocol set out in 5.7 was used but the plates were initially coated at 4° C. overnight with 5 μg/ml of streptavidin. Biotinylated myostatin was added at 0.3 μg/ml block buffer during 1 hour followed by 3-times in wash buffer. 10B3 (final concentration of 0.2 μg/ml) was added into each well and mixed with antibodies titrated out to a suitable concentration range (approximately 10 to 0.01 μg/ml). An anti-mouse HRP-conjugated antibody (DAKO P0260, used according to the manufacturer's instructions) was used to detect binding of the 10B3 antibody.

B2: H6L6 (antibody, IgG1, V domains shown)
VH: QVQLVQSGAEVKKPGASVKISCKASGYSFTGYFMHWVRQAPGQGLEWIGNIYPYNGVSNYNQRFKAKATLTVDKSTSTAYMELRSLRSDDTAVYYCARRYYYGTGPADWYYDVWGQGTLVTVSS
VL: DIQMTQSPSSLSASVGDRVTITCKASQDINSYLSWFQQKPGKAPKTLIYRANRLVDGVPSKFSGSGSGQDYTLTISSLQPEDFATYYCLQSDEFPLTFGQGTKLEIKR
notes: Humanised IgG1/kappa
IC50 [2]: 0.32 nM

B4: H4L6 (antibody, IgG1, V domains shown)
VH: B2 VH with I20V, I48M, K67R, A68V, L70M
VL: B2 VL
notes: Humanised IgG1/kappa
IC50, myostatin responsive reporter gene neutralisation assay (A204) [3]: 6.9 nM
IC50 [2]: 0.273 nM

B5: H6L5 (antibody, IgG1, V domains shown)
VH: B2 VH
VL: B2 VL with Q69T
IC50, myostatin responsive reporter gene neutralisation assay (A204) [3]: 6 nM

B6: H6L4 (antibody, IgG1, V domains shown)
VH: B2 VH
VL: B2 VL with T46S
notes: Humanised IgG1/kappa
IC50 [2]: 0.225 nM

B7: H2L2-C91S_G99D (antibody, V domains shown)
VH: B2 VH with I20V, I48M, K67R, A68V, L70M, V72T, K74T, G103D, Y111F
VL: B2 VL with T46S, Q69T
rank among the five most potent, top (1) to bottom (5) [4]: 5 rank

B8: H5L4 (antibody, IgG1, V domains shown)
VH: B2 VH with I20V, K67R
VL: B2 VL with T46S
notes: Humanised IgG1/kappa
IC50 [2]: 0.211 nM

B9: H3L4 (antibody, IgG1, V domains shown)
VH: B2 VH with I20V, K67R, V72T, K74T
VL: B2 VL with T46S
notes: Humanised IgG1/kappa
IC50 [2]: 1.31 nM

B10: H7L5 (antibody, IgG1, V domains shown)
VH: B2 VH with I20V, I48M, G56S, K67R, A68V, L70M
VL: B2 VL with Q69T
notes: Humanised IgG1/kappa
IC50, myostatin responsive reporter gene neutralisation assay (A204) [3]: 6.3 nM
IC50 [2]: 0.028 nM

B12: H2L2-C91S_P100B_F (antibody, V domains shown)
VH: B2 VH with I20V, I48M, K67R, A68V, L70M, V72T, K74T, P106F, Y111F
VL: B2 VL with T46S, Q69T
Mean IC50, A204 in vitro activity assay [5]: 4.24 nM
rank among the five most potent, top (1) to bottom (5) [4]: 1 rank
rank among the five most potent, top (1) to bottom (5) [6]: 1 rank

B13: H7L4 (antibody, IgG1, V domains shown)
VH: B2 VH with I20V, I48M, G56S, K67R, A68V, L70M
VL: B2 VL with T46S
notes: Humanised IgG1/kappa
IC50 [2]: 0.038 nM

B15: H3L6 (antibody, IgG1, V domains shown)
VH: B2 VH with I20V, K67R, V72T, K74T
VL: B2 VL
notes: Humanised IgG1/kappa
IC50 [2]: 3.04 nM

B17: H2L2-C91S_Y96L (antibody, V domains shown)
VH: B2 VH with I20V, I48M, K67R, A68V, L70M, V72T, K74T, Y100L, Y111F
VL: B2 VL with T46S, Q69T
rank among the five most potent, top (1) to bottom (5) [7]: 5 rank

B18: H7L6 (antibody, IgG1, V domains shown)
VH: B2 VH with I20V, I48M, G56S, K67R, A68V, L70M
VL: B2 VL
notes: Humanised IgG1/kappa
IC50 [2]: 0.031 nM

B19: H4L5 (antibody, IgG1, V domains shown)
VH: B2 VH with I20V, I48M, K67R, A68V, L70M
VL: B2 VL with Q69T
notes: Humanised IgG1/kappa
IC50, myostatin responsive reporter gene neutralisation assay (A204) [3]: 6.5 nM
IC50 [2]: 0.336 nM

B23: H4L4 (antibody, IgG1, V domains shown)
VH: B2 VH with I20V, I48M, K67R, A68V, L70M
VL: B2 VL with T46S
notes: Humanised IgG1/kappa
IC50, myostatin responsive reporter gene neutralisation assay (A204) [3]: 7.9 nM
IC50 [2]: 0.395 nM

B25: H8L4 (antibody, IgG1, V domains shown)
VH: B2 VH with I20V, G56S, K67R
VL: B2 VL with T46S
notes: Humanised IgG1/kappa
IC50 [2]: 0.079 nM

B26: H3L5 (antibody, IgG1, V domains shown)
VH: B2 VH with I20V, K67R, V72T, K74T
VL: B2 VL with Q69T
notes: Humanised IgG1/kappa
IC50 [2]: 1.08 nM

B27: H5L6 (antibody, IgG1, V domains shown)
VH: B2 VH with I20V, K67R
VL: B2 VL
notes: Humanised IgG1/kappa
IC50 [2]: 0.166 nM

B28: H2L2-C91S_P100B_I (antibody, V domains shown)
VH: B2 VH with I20V, I48M, K67R, A68V, L70M, V72T, K74T, P106I, Y111F
VL: B2 VL with T46S, Q69T
rank among the five most potent, top (1) to bottom (5) [7]: 3 rank
Mean IC50, A204 in vitro activity assay [5]: 4.53 nM
rank among the five most potent, top (1) to bottom (5) [6]: 5 rank

B29: H5L5 (antibody, IgG1, V domains shown)
VH: B2 VH with I20V, K67R
VL: B2 VL with Q69T
notes: Humanised IgG1/kappa
IC50, myostatin responsive reporter gene neutralisation assay (A204) [3]: 6.1 nM
IC50 [2]: 0.149 nM

Now from value to binder:

binding result [1]: binds
B1: H2L2-C91S_F100G_N (antibody, V domains shown)
VH: B2 VH with I20V, I48M, K67R, A68V, L70M, V72T, K74T, Y111N
VL: B2 VL with T46S, Q69T

binding result [1]: binds
B3: HoLo (antibody, V domains shown)
VH: B2 VH with I20V, S28T, I48M, K67R, A68V, L70M, V72T, K74T, Y111F
VL: B2 VL with T46S, Q69T, Y71F, S91C
notes: also called H0L0; copies: 2 + 2

IC50 [2]: 0.101 nM
B11: H8L6 (antibody, IgG1, V domains shown)
VH: B2 VH with I20V, G56S, K67R
VL: B2 VL
notes: Humanised IgG1/kappa

binding result [1]: binds
B14: H2L2-C91S_G99S (antibody, V domains shown)
VH: B2 VH with I20V, I48M, K67R, A68V, L70M, V72T, K74T, G103S, Y111F
VL: B2 VL with T46S, Q69T

binding result [1]: binds
B16: H2L2-C91S_W100E_F (antibody, V domains shown)
VH: B2 VH with I20V, I48M, K67R, A68V, L70M, V72T, K74T, W109F, Y111F
VL: B2 VL with T46S, Q69T

IC50 [2]: 0.141 nM
B20: H9L4 (antibody, IgG1, V domains shown)
VH: B2 VH with G56S
VL: B2 VL with T46S
notes: Humanised IgG1/kappa

IC50 [2]: 0.129 nM
B21: H9L6 (antibody, IgG1, V domains shown)
VH: B2 VH with G56S
VL: B2 VL
notes: Humanised IgG1/kappa

IC50, myostatin responsive reporter gene neutralisation assay (A204) [3]: 4 nM
IC50 [2]: 0.14 nM
B22: H9L5 (antibody, IgG1, V domains shown)
VH: B2 VH with G56S
VL: B2 VL with Q69T
notes: Humanised IgG1/kappa

binding result [1]: binds
B24: H2L2-C91S_G100A_K (antibody, V domains shown)
VH: B2 VH with I20V, I48M, K67R, A68V, L70M, V72T, K74T, G105K, Y111F
VL: B2 VL with T46S, Q69T
